Measurements reported in PMC8809517, “Cofactor-independent RNA editing by a synthetic S-type PPR protein”.
Where a chain is given by its changes, count along the chain named.

T1: GFP-9S library array, motif 4 ND N98G (synthetic construct, N98G)
T1 chain: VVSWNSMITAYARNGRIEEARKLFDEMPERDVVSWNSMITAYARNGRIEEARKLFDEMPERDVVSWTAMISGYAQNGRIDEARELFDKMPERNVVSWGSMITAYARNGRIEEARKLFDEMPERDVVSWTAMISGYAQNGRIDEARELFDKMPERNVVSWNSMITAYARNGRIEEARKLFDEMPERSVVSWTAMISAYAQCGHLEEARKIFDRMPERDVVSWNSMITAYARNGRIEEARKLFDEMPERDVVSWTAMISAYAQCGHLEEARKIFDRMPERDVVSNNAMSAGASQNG

T2: GFP-9S library array, motif 4 ND N98S;D124W (synthetic construct, N98S;D124W)
T2 chain: T1 chain with G98S, D124W

T3: GFP-9S library array, motif 4 ND N98V;D124H (synthetic construct, N98V;D124H)
T3 chain: T1 chain with G98V, D124H

T4: GFP-9S library array, motif 4 ND N98G;D124Y (synthetic construct, N98G;D124Y)
T4 chain: T1 chain with D124Y

T5: GFP-9S library array, motif 4 ND N98W;D124M (synthetic construct, N98W;D124M)
T5 chain: T1 chain with G98W, D124M


How the values were obtained:
Assay in all cases: high-throughput RNA pulldown from lysate on Ni-NTA beads; HRP: 50 mM Tris pH 8, 150 mM NaCl, 1 mM beta-mercaptoethanol, 50 ug/ml BSA, 3 ug/ml yeast RNA, 0.5% heparin; ITC and FP: Tris pH 8, 200 mM KCl, 5% glycerol; MST: 50 mM Tris pH 8, 200 mM NaCl, 1 mM DTT, BSA, heparin, 0.05% Tween 20
Conditions in all cases: tags: N-terminal His-eGFP
[1] = target: T1, GFP-9S library array, motif 4 ND N98G
[2] = target: T2, GFP-9S library array, motif 4 ND …
[3] = target: T3, GFP-9S library array, motif 4 ND …
[4] = target: T4, GFP-9S library array, motif 4 ND …
[5] = target: T5, GFP-9S library array, motif 4 ND …

Binder | Kd ([1]; label: 5' Cy5) | Kd ([2]; label: 5' Cy5) | Kd ([3]; label: 5' Cy5) | Kd ([4]; label: 5' Cy5) | Kd ([5]; label: 5' Cy5) | Kd ([1]; label: 5' IRDye 800CW) | Kd ([2]; label: 5' IRDye 800CW) | Kd ([3]; label: 5' IRDye 800CW) | Kd ([4]; label: 5' IRDye 800CW) | Kd ([5]; label: 5' IRDye 800CW)
AUUAGACGUGA (ssRNA) [Cy5-rpoA-G] | 32.5 nM | 126 nM | 155 nM | 280 nM | 102 nM |  |  |  |  | 
AUUACACGUGA (ssRNA) [Cy5-rpoA] | 402 nM | 90.7 nM | 160 nM | 272 nM | 96.1 nM |  |  |  |  | 
AUUAAACGUGA (ssRNA) [IR-rpoA-A] |  |  |  |  |  | 495 nM | 218 nM | 209 nM | 548 nM | 235 nM
AUUAUACGUGA (ssRNA) [IR-rpoA-U] |  |  |  |  |  | 408 nM | 156 nM | 219 nM | 574 nM | 175 nM
